According to patent publication US20220204580A1 (AstraZeneca / MedImmune, published 2022):
Numbered stars: 1 amine (or outer) side, 2 acyl side, 3 side chain; on linkers, the order of the positions; unused ones are H or OH. Bridge positions count the residues as written; N and C are the ends. Square brackets hold non-standard residues; d marks the D form. Side chains are listed from the residue outwards. Ends that are not written are not given here. * marks the point of attachment. C18 diacid = O=C(O)CCCCCCCCCCCCCCCCC(=O)*; γGlu = O=C(O)[C@H](CCC(=O)[*:2])N[*:1]; αMeF = C[C@](N)(Cc1ccccc1)C(=O)O; Aib = CC(C)(N)C(=O)O

T1: human amylin receptor (calcitonin receptor co-expressed with receptor activity modifying protein, RAMP3) (human, UniProt P30988 25-474; O60896 24-148)
T1 sequence (looked up) 1: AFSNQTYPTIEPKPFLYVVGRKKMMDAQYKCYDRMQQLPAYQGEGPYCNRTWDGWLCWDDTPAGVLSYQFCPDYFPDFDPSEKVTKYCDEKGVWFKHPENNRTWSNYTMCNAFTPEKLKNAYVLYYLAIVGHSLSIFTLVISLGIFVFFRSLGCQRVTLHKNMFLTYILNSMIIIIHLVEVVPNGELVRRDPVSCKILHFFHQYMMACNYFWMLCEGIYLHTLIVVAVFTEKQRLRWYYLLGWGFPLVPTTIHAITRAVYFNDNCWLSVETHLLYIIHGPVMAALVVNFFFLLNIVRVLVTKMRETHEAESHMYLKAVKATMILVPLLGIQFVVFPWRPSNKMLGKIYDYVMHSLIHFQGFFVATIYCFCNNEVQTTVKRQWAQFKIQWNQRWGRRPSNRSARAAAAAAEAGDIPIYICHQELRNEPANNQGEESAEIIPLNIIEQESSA
T1 sequence (looked up) 2: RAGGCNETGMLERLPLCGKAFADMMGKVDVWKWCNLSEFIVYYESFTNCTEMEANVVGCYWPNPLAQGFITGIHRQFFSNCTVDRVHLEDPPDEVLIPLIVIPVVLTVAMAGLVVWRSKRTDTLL

T2: human calcitonin receptor (human, UniProt P30988 25-474)
T2 sequence (looked up): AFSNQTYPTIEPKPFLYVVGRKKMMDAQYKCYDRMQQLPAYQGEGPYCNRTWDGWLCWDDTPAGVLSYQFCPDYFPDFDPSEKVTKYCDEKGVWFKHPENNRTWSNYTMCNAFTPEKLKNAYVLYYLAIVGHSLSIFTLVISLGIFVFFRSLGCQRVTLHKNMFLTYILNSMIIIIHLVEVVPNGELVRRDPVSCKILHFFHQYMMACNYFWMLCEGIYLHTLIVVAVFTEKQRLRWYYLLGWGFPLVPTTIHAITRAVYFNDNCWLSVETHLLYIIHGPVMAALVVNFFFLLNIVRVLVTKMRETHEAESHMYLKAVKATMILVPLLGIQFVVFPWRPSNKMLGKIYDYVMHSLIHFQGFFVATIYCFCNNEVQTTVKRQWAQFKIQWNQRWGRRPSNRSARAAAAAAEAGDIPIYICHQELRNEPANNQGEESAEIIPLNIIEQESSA

B1: Peptide 128 (SEQ ID NO: 128) (peptide)
peptide: K([γGlu-C18 diacid])KCNTATCATQRLAEFL[Aib]HSSNNFGPILPPTNVGSNTY-NH2
modifications: disulfide 3-8; N-terminus assumed
SMILES: CC[C@H](C)[C@H](NC(=O)[C@@H]1CCCN1C(=O)CNC(=O)[C@H](Cc1ccccc1)NC(=O)[C@H](CC(N)=O)NC(=O)[C@H](CC(N)=O)NC(=O)[C@H](CO)NC(=O)[C@H](CO)NC(=O)[C@H](Cc1c[nH]cn1)NC(=O)C(C)(C)NC(=O)[C@H](CC(C)C)NC(=O)[C@H](Cc1ccccc1)NC(=O)[C@H](CCC(=O)O)NC(=O)[C@H](C)NC(=O)[C@H](CC(C)C)NC(=O)[C@H](CCCNC(=N)N)NC(=O)[C@H](CCC(N)=O)NC(=O)[C@@H](NC(=O)[C@H](C)NC(=O)[C@@H]1CSSC[C@H](NC(=O)[C@H](CCCCN)NC(=O)[C@@H](N)CCCCNC(=O)CC[C@H](NC(=O)CCCCCCCCCCCCCCCCC(=O)O)C(=O)O)C(=O)N[C@@H](CC(N)=O)C(=O)N[C@@H]([C@@H](C)O)C(=O)N[C@@H](C)C(=O)N[C@@H]([C@@H](C)O)C(=O)N1)[C@@H](C)O)C(=O)N[C@@H](CC(C)C)C(=O)N1CCC[C@H]1C(=O)N1CCC[C@H]1C(=O)N[C@H](C(=O)N[C@@H](CC(N)=O)C(=O)N[C@H](C(=O)NCC(=O)N[C@@H](CO)C(=O)N[C@@H](CC(N)=O)C(=O)N[C@H](C(=O)N[C@@H](Cc1ccc(O)cc1)C(N)=O)[C@@H](C)O)C(C)C)[C@@H](C)O
B2: Peptide 133 (SEQ ID NO: 133) (peptide)
peptide: K([γGlu-C18 diacid])KCNTATCATQRLANFL[Aib]HSSSNFGPILPPTNVGSNTY-NH2
modifications: disulfide 3-8; N-terminus assumed
SMILES: CC[C@H](C)[C@H](NC(=O)[C@@H]1CCCN1C(=O)CNC(=O)[C@H](Cc1ccccc1)NC(=O)[C@H](CC(N)=O)NC(=O)[C@H](CO)NC(=O)[C@H](CO)NC(=O)[C@H](CO)NC(=O)[C@H](Cc1c[nH]cn1)NC(=O)C(C)(C)NC(=O)[C@H](CC(C)C)NC(=O)[C@H](Cc1ccccc1)NC(=O)[C@H](CC(N)=O)NC(=O)[C@H](C)NC(=O)[C@H](CC(C)C)NC(=O)[C@H](CCCNC(=N)N)NC(=O)[C@H](CCC(N)=O)NC(=O)[C@@H](NC(=O)[C@H](C)NC(=O)[C@@H]1CSSC[C@H](NC(=O)[C@H](CCCCN)NC(=O)[C@@H](N)CCCCNC(=O)CC[C@H](NC(=O)CCCCCCCCCCCCCCCCC(=O)O)C(=O)O)C(=O)N[C@@H](CC(N)=O)C(=O)N[C@@H]([C@@H](C)O)C(=O)N[C@@H](C)C(=O)N[C@@H]([C@@H](C)O)C(=O)N1)[C@@H](C)O)C(=O)N[C@@H](CC(C)C)C(=O)N1CCC[C@H]1C(=O)N1CCC[C@H]1C(=O)N[C@H](C(=O)N[C@@H](CC(N)=O)C(=O)N[C@H](C(=O)NCC(=O)N[C@@H](CO)C(=O)N[C@@H](CC(N)=O)C(=O)N[C@H](C(=O)N[C@@H](Cc1ccc(O)cc1)C(N)=O)[C@@H](C)O)C(C)C)[C@@H](C)O
B3: Peptide 130 (SEQ ID NO: 130) (peptide)
peptide: K([γGlu-C18 diacid])KCNTATCATQRLAEFL[Aib]HSSHNFGPILPPTNVGSNTY-NH2
modifications: disulfide 3-8; N-terminus assumed
SMILES: CC[C@H](C)[C@H](NC(=O)[C@@H]1CCCN1C(=O)CNC(=O)[C@H](Cc1ccccc1)NC(=O)[C@H](CC(N)=O)NC(=O)[C@H](Cc1c[nH]cn1)NC(=O)[C@H](CO)NC(=O)[C@H](CO)NC(=O)[C@H](Cc1c[nH]cn1)NC(=O)C(C)(C)NC(=O)[C@H](CC(C)C)NC(=O)[C@H](Cc1ccccc1)NC(=O)[C@H](CCC(=O)O)NC(=O)[C@H](C)NC(=O)[C@H](CC(C)C)NC(=O)[C@H](CCCNC(=N)N)NC(=O)[C@H](CCC(N)=O)NC(=O)[C@@H](NC(=O)[C@H](C)NC(=O)[C@@H]1CSSC[C@H](NC(=O)[C@H](CCCCN)NC(=O)[C@@H](N)CCCCNC(=O)CC[C@H](NC(=O)CCCCCCCCCCCCCCCCC(=O)O)C(=O)O)C(=O)N[C@@H](CC(N)=O)C(=O)N[C@@H]([C@@H](C)O)C(=O)N[C@@H](C)C(=O)N[C@@H]([C@@H](C)O)C(=O)N1)[C@@H](C)O)C(=O)N[C@@H](CC(C)C)C(=O)N1CCC[C@H]1C(=O)N1CCC[C@H]1C(=O)N[C@H](C(=O)N[C@@H](CC(N)=O)C(=O)N[C@H](C(=O)NCC(=O)N[C@@H](CO)C(=O)N[C@@H](CC(N)=O)C(=O)N[C@H](C(=O)N[C@@H](Cc1ccc(O)cc1)C(N)=O)[C@@H](C)O)C(C)C)[C@@H](C)O
B4: Peptide 131 (SEQ ID NO: 131) (peptide)
peptide: K([γGlu-C18 diacid])KCNTATCATQRLANFL[Aib]HSSHNFGPILPPTNVGSNTY-NH2
modifications: disulfide 3-8; N-terminus assumed
SMILES: CC[C@H](C)[C@H](NC(=O)[C@@H]1CCCN1C(=O)CNC(=O)[C@H](Cc1ccccc1)NC(=O)[C@H](CC(N)=O)NC(=O)[C@H](Cc1c[nH]cn1)NC(=O)[C@H](CO)NC(=O)[C@H](CO)NC(=O)[C@H](Cc1c[nH]cn1)NC(=O)C(C)(C)NC(=O)[C@H](CC(C)C)NC(=O)[C@H](Cc1ccccc1)NC(=O)[C@H](CC(N)=O)NC(=O)[C@H](C)NC(=O)[C@H](CC(C)C)NC(=O)[C@H](CCCNC(=N)N)NC(=O)[C@H](CCC(N)=O)NC(=O)[C@@H](NC(=O)[C@H](C)NC(=O)[C@@H]1CSSC[C@H](NC(=O)[C@H](CCCCN)NC(=O)[C@@H](N)CCCCNC(=O)CC[C@H](NC(=O)CCCCCCCCCCCCCCCCC(=O)O)C(=O)O)C(=O)N[C@@H](CC(N)=O)C(=O)N[C@@H]([C@@H](C)O)C(=O)N[C@@H](C)C(=O)N[C@@H]([C@@H](C)O)C(=O)N1)[C@@H](C)O)C(=O)N[C@@H](CC(C)C)C(=O)N1CCC[C@H]1C(=O)N1CCC[C@H]1C(=O)N[C@H](C(=O)N[C@@H](CC(N)=O)C(=O)N[C@H](C(=O)NCC(=O)N[C@@H](CO)C(=O)N[C@@H](CC(N)=O)C(=O)N[C@H](C(=O)N[C@@H](Cc1ccc(O)cc1)C(N)=O)[C@@H](C)O)C(C)C)[C@@H](C)O
B5: Peptide 132 (SEQ ID NO: 132) (peptide)
peptide: K([γGlu-C18 diacid])KCNTATCATQRLANFL[Aib]HSSPNFGPILPPTNVGSNTY-NH2
modifications: disulfide 3-8; N-terminus assumed
SMILES: CC[C@H](C)[C@H](NC(=O)[C@@H]1CCCN1C(=O)CNC(=O)[C@H](Cc1ccccc1)NC(=O)[C@H](CC(N)=O)NC(=O)[C@@H]1CCCN1C(=O)[C@H](CO)NC(=O)[C@H](CO)NC(=O)[C@H](Cc1c[nH]cn1)NC(=O)C(C)(C)NC(=O)[C@H](CC(C)C)NC(=O)[C@H](Cc1ccccc1)NC(=O)[C@H](CC(N)=O)NC(=O)[C@H](C)NC(=O)[C@H](CC(C)C)NC(=O)[C@H](CCCNC(=N)N)NC(=O)[C@H](CCC(N)=O)NC(=O)[C@@H](NC(=O)[C@H](C)NC(=O)[C@@H]1CSSC[C@H](NC(=O)[C@H](CCCCN)NC(=O)[C@@H](N)CCCCNC(=O)CC[C@H](NC(=O)CCCCCCCCCCCCCCCCC(=O)O)C(=O)O)C(=O)N[C@@H](CC(N)=O)C(=O)N[C@@H]([C@@H](C)O)C(=O)N[C@@H](C)C(=O)N[C@@H]([C@@H](C)O)C(=O)N1)[C@@H](C)O)C(=O)N[C@@H](CC(C)C)C(=O)N1CCC[C@H]1C(=O)N1CCC[C@H]1C(=O)N[C@H](C(=O)N[C@@H](CC(N)=O)C(=O)N[C@H](C(=O)NCC(=O)N[C@@H](CO)C(=O)N[C@@H](CC(N)=O)C(=O)N[C@H](C(=O)N[C@@H](Cc1ccc(O)cc1)C(N)=O)[C@@H](C)O)C(C)C)[C@@H](C)O
B6: Peptide 127 (SEQ ID NO: 127) (peptide)
peptide: K([γGlu-γGlu-C18 diacid])CNTATCATQRLANFL[Aib]HSSNNFGPILPPTNVGSNTY-NH2
modifications: disulfide 2-7; N-terminus assumed
SMILES: CC[C@H](C)[C@H](NC(=O)[C@@H]1CCCN1C(=O)CNC(=O)[C@H](Cc1ccccc1)NC(=O)[C@H](CC(N)=O)NC(=O)[C@H](CC(N)=O)NC(=O)[C@H](CO)NC(=O)[C@H](CO)NC(=O)[C@H](Cc1c[nH]cn1)NC(=O)C(C)(C)NC(=O)[C@H](CC(C)C)NC(=O)[C@H](Cc1ccccc1)NC(=O)[C@H](CC(N)=O)NC(=O)[C@H](C)NC(=O)[C@H](CC(C)C)NC(=O)[C@H](CCCNC(=N)N)NC(=O)[C@H](CCC(N)=O)NC(=O)[C@@H](NC(=O)[C@H](C)NC(=O)[C@@H]1CSSC[C@H](NC(=O)[C@@H](N)CCCCNC(=O)CC[C@H](NC(=O)CC[C@H](NC(=O)CCCCCCCCCCCCCCCCC(=O)O)C(=O)O)C(=O)O)C(=O)N[C@@H](CC(N)=O)C(=O)N[C@@H]([C@@H](C)O)C(=O)N[C@@H](C)C(=O)N[C@@H]([C@@H](C)O)C(=O)N1)[C@@H](C)O)C(=O)N[C@@H](CC(C)C)C(=O)N1CCC[C@H]1C(=O)N1CCC[C@H]1C(=O)N[C@H](C(=O)N[C@@H](CC(N)=O)C(=O)N[C@H](C(=O)NCC(=O)N[C@@H](CO)C(=O)N[C@@H](CC(N)=O)C(=O)N[C@H](C(=O)N[C@@H](Cc1ccc(O)cc1)C(N)=O)[C@@H](C)O)C(C)C)[C@@H](C)O

Assays:
[1] = biological target: T1, human amylin receptor (calcitonin …); test: cell-based or functional assay
[2] = biological target: T2, human calcitonin receptor; test: cell-based or functional assay

Binder	EC50 (cAMP production) [1] [pM]	Ratio (EC50 hCTR / EC50 hAMYR3) [1]	EC50 (cAMP production) [2] [nM]
B1	118	4.8	0.568
B2	378	6.8	2.58
B3	446	15	6.69
B4	737	20.5	15.1
B5	416	9.3	3.85
B6	364	19.6	7.13
K([γGlu-C18 diacid])KCNTATCATQRLANFLVHSSNN[αMeF]GPILPPTNVGSNTY-NH2 (disulfide 3-8) [Peptide 14 (SEQ ID NO: 14)]	220	6	1.35
